Measurements taken from US20210069342A1 (LEGOCHEM BIOSCIENCES, published 2021).

Experiments:
[1] = biological target: T1, human ROR1 expressed on the cell surface (human, UniProt Q01973 30-937); experiment: flow cytometry on HCC1806 cells (breast cancer), C2E3 IgG, FITC anti-human Fc detection
T1 construct: whole, on cells; also called cell surface-expressed ROR1 antigen; ROR1 on JeKo-1, Mino, CHO-human ROR1, MC38-human ROR1 and other cancer cell lines
Method: (§1) FACS analysis (FACSCalibur, BD Biosciences) was used to analyze the binding of the anti-ROR1 antibody of the present invention to ROR1 in the above cell lines.
(§2) Specifically, the respective cell lines were dissociated and washed in PBS, then the numbers of cells were counted and adjusted to 2×10⁵ cells/200 PBS. Then, they were treated with 10 /mL of the antibody of clone name C2E3 of the ROR1 monoclonal antibodies prepared in Embodiment 3, and reacted for 1 hour at 4° C. After the reaction, the cells were washed in PBS, then FITC-marked constant region (Fc) specific antibody (Goat anti-human IgG FITC conjugate, Fc specific, Sigma, F9512, concentration 20 mg/ml) was suspended in 2 /1×10⁵ cells/200 PBS and reacted for 1 hour at 4° C. After reacting, the cells were washed with PBS and analyzed with the FACSCalibur equipment. The negative control was only treated with FITC-marked constant region (Fc) specific antibody. To compare the degree of ROR1 expression among the respective cancer cell lines, the quotient of dividing the shifted readings for the experimental group treated with the ROR1 monoclonal antibody (C2E3) of the present invention by the shifted readings for the control group (MFI Ratio: MFI of anti-ROR1/MFI or 2nd Ab) is indicated.

[2] = biological target: T1, human ROR1 expressed on the cell surface; experiment: flow cytometry on MDA-MB-468 cells (breast cancer), C2E3 IgG, FITC anti-human Fc detection
Method: as §1, §2

[3] = biological target: T1, human ROR1 expressed on the cell surface; experiment: flow cytometry on JeKo-1 cells (MCL), C2E3 IgG, FITC anti-human Fc detection
Method: as §1, §2

[4] = biological target: T2, recombinant human ROR1-His (Sino Biological, 13968-H08H) (human, UniProt Q01973 30-406); experiment: ELISA, wells coated with human ROR1 protein (sheet: 'human ROR1'; text: ROR1-Fc or ROR1-His), IgG titrated, HRP anti-Fab detection, OD (450-650nm)
T2 construct: extracellular domain; Bought protein; also called ROR1-HIS protein; not shown: His tag
Method: Anti-ROR1 antibody antigen binding affinity was assessed using an ELISA-based solution binding assay. Specifically, a 96-well microtiter plate (Nunc-Immuno Plates), NUNC) was coated for 16 hours at 4° C. with the ROR1 protein described below at a concentration of 1 in PBS solution, and non-specific binding sites were blocked for 2 hours with 3% BSA (bovine serum albumin). Here, the ROR1 protein used was, in the case of human ROR1, the ROR1-Fc or recombinant human ROR1-His (Sino Biological, 13968-H08H) of Embodiment 1. The ROR1-His used in ELISA, as stated in the above sentence, was a protein from the Sino Biological company (13968-H08H), and the ROR1-His of Embodiment 1 or recombinant mouse ROR1 protein was used (Acrobiosystems, RO1-M5221-100 )
Subsequently, the anti-ROR1 antibodies prepared in Embodiment 3 were added at the concentrations stated in FIG. 2 to a 96-well microtiter plate, and binding capacity was analyzed using ELISA as follows. Specifically, after incubating for 2 hours, the plate was washed 5 times with PBS containing 0.05% Tween 20, then HRP-conjugated Fab multiclonal antibody reagent (Perce, 31414) was diluted to 1:10,000 and placed in the washed microtiter plate. After reacting for 1 hour at 37° C., the ROR1 antibodies bonded to the plate were detected. After the reaction, color development was performed using TMB (Tetramethylbenzidine, Sigma, T0440). The enzymatic reaction was stopped using 0.5 mol/L sulfuric acid, and absorbance at 450 nm and 650 nm was measured (450 nm-650 nm) using a micro plate reader (Molecular Device)

[5] = biological target: T1, human ROR1 expressed on the cell surface; experiment: flow cytometry on HCC1187 cells (breast cancer), C2E3 IgG, FITC anti-human Fc detection
Method: as §1, §2

[6] = biological target: T1, human ROR1 expressed on the cell surface; experiment: flow cytometry on NCI-H1975 cells (lung cancer), C2E3 IgG, FITC anti-human Fc detection
Method: as §1, §2

[7] = biological target: T1, human ROR1 expressed on the cell surface; experiment: flow cytometry on MDA-MB-231 cells (breast cancer), C2E3 IgG, FITC anti-human Fc detection
Method: as §1, §2

[8] = biological target: T1, human ROR1 expressed on the cell surface; experiment: flow cytometry on SNU-1750 cells (gastric cancer), C2E3 IgG, FITC anti-human Fc detection
Method: as §1, §2

[9] = biological target: T1, human ROR1 expressed on the cell surface; experiment: flow cytometry on HT29 cells (colon cancer), C2E3 IgG, FITC anti-human Fc detection
Method: as §1, §2

[10] = biological target: T1, human ROR1 expressed on the cell surface; experiment: flow cytometry on MCF7 cells (breast cancer; the text calls MCF7 a cell line which does not express ROR1), C2E3 IgG, FITC anti-human Fc detection
Method: as §1, §2

[11] = biological target: T1, human ROR1 expressed on the cell surface; experiment: flow cytometry on AGS cells (gastric cancer), C2E3 IgG, FITC anti-human Fc detection
Method: as §1, §2

[12] = biological target: T1, human ROR1 expressed on the cell surface; experiment: flow cytometry on H1437 cells (lung cancer), C2E3 IgG, FITC anti-human Fc detection
Method: as §1, §2

[13] = biological target: T1, human ROR1 expressed on the cell surface; experiment: flow cytometry on H460 cells (lung cancer), C2E3 IgG, FITC anti-human Fc detection
Method: as §1, §2

T1 sequence (Q01973 30-937): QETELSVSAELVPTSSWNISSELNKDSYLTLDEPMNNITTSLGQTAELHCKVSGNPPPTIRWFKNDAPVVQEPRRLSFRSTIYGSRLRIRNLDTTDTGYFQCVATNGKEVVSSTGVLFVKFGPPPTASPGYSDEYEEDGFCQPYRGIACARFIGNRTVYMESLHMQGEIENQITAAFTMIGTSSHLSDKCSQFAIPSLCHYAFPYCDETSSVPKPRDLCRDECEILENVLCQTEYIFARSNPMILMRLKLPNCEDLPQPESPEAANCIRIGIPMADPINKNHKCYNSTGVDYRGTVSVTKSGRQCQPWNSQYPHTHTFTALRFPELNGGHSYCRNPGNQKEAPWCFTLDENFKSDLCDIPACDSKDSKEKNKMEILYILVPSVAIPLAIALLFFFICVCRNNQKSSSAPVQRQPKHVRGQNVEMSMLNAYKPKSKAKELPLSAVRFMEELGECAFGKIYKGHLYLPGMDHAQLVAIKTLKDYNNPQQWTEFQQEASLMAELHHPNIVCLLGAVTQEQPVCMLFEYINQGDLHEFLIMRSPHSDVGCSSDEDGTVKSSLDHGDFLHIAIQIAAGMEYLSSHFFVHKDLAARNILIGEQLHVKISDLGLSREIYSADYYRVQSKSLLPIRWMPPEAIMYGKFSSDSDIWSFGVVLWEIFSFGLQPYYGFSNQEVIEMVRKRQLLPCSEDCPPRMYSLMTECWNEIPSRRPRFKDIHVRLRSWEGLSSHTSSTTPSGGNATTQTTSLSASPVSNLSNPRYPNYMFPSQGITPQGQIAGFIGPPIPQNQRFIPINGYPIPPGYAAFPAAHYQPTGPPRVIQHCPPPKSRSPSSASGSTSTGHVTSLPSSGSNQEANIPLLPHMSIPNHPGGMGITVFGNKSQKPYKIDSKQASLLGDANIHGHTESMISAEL
T2 sequence (Q01973 30-406): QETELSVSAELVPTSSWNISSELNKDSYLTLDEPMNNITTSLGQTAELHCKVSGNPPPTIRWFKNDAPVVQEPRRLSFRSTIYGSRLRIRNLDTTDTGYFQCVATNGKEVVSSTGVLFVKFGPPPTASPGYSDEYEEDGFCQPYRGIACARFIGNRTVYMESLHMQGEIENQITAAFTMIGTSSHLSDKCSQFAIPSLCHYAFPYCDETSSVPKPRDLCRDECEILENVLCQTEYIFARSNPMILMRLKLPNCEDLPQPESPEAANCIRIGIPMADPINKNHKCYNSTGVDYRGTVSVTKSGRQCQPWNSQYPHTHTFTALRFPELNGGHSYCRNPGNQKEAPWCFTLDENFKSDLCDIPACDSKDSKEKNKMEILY

B1: anti-ROR1 IgG antibody C2E3 (antibody, V domains shown)
VH: EVQLLESGGGLVQPGGSLRLSCAASGFTFSNYAMSWVRQAPGKGLEWVSSISHNSGSTYYADSVKGRFTISRDNSKNTLYLQMNSLRAEDTAVYYCAKFISARKSLGRSYSNGMDVWGQGTLVTVSS
VL: QSVLTQPPSASGTPGQRVTISCTGSSSNIGSNDVTWYQQLPGTAPKLLIYADSKRPSGVPDRFSGSKSGTSASLAISGLRSEDEADYYCGTWDYSLSGYVFGGGTKLTVLG
notes: Full IgG form (human IgG1 constant region, lambda light chain), expressed in CHO-S cells
Mean Fold Ratio (MFI of anti-ROR1 / MFI of 2nd Ab) [1]: 2.3 | Mean Fold Ratio (MFI of anti-ROR1 / MFI of 2nd Ab) [2]: 6.4 | Mean Fold Ratio (MFI of anti-ROR1 / MFI of 2nd Ab) [3]: 4 | EC50 (read off the curve) [4]: ~0.2 nM | Mean Fold Ratio (MFI of anti-ROR1 / MFI of 2nd Ab) [5]: 9.3 | Mean Fold Ratio (MFI of anti-ROR1 / MFI of 2nd Ab) [6]: 4.2 | Mean Fold Ratio (MFI of anti-ROR1 / MFI of 2nd Ab) [7]: 8.8 | Mean Fold Ratio (MFI of anti-ROR1 / MFI of 2nd Ab) [8]: 3.9 | Mean Fold Ratio (MFI of anti-ROR1 / MFI of 2nd Ab) [9]: 3.9 | Mean Fold Ratio (MFI of anti-ROR1 / MFI of 2nd Ab) [10]: 1.1 | Mean Fold Ratio (MFI of anti-ROR1 / MFI of 2nd Ab) [11]: 12.3 | Mean Fold Ratio (MFI of anti-ROR1 / MFI of 2nd Ab) [12]: 4.1 | Mean Fold Ratio (MFI of anti-ROR1 / MFI of 2nd Ab) [13]: 10.9
